Patent US20240352102A1 (UNITED STATES GOVERNMENT AS REPRESENTED BY THE DEPARTMENT …, published 2024)

Experiments:
[1] = molecular target: T1, Peptide_077; assay: peptide microarray
T1 peptide: GGQVEVKSEKLDFKD

[2] = molecular target: T2, Peptide_093; assay: peptide microarray
T2 peptide: VVSGDTSPRHLSNVS

[3] = molecular target: T3, Peptide_091; assay: peptide microarray
T3 peptide: AEIVYKSPVVSGDTS

[4] = molecular target: T4, Peptide_076; assay: peptide microarray
T4 peptide: HKPGGGQVEVKSEKL

[5] = molecular target: T5, Peptide_096; assay: peptide microarray
T5 peptide: NVSSTGSIDMVDSPQ

[6] = molecular target: T6, Peptide_079; assay: peptide microarray
T6 peptide: EKLDFKDRVQSKIGS

[7] = molecular target: T7, Peptide_088; assay: peptide microarray
T7 peptide: FRENAKAKTDHGAEI

[8] = molecular target: T8, Peptide_081; assay: peptide microarray
T8 peptide: VQSKIGSLDNITHVP

[9] = molecular target: T9, Peptide_100; assay: peptide microarray
T9 peptide: ATLADEVSASLAKQG

[10] = molecular target: T10, Peptide_087; assay: peptide microarray
T10 peptide: HKLTFRENAKAKTDH

[11] = molecular target: T11, Peptide_101; assay: peptide microarray
T11 peptide: TLADEVSASLAKQGL

[12] = molecular target: T12, Peptide_078; assay: peptide microarray
T12 peptide: EVKSEKLDFKDRVQS

[13] = molecular target: T13, Peptide_080; assay: peptide microarray
T13 peptide: FKDRVQSKIGSLDNI

[14] = molecular target: T14, Peptide_090; assay: peptide microarray
T14 peptide: TDHGAEIVYKSPVVS

[15] = molecular target: T15, Peptide_095; assay: peptide microarray
T15 peptide: RHLSNVSSTGSIDMV

[16] = molecular target: T16, Peptide_075; assay: peptide microarray
T16 peptide: GNIHHKPGGGQVEVK

[17] = molecular target: T17, Peptide_089; assay: peptide microarray
T17 peptide: AKAKTDHGAEIVYKS

[18] = molecular target: T18, Peptide_084; assay: peptide microarray
T18 peptide: HVPGGGNKKIETHKL

[19] = molecular target: T19, Peptide_092; assay: peptide microarray
T19 peptide: YKSPVVSGDTSPRHL

[20] = molecular target: T20, Peptide_083; assay: peptide microarray
T20 peptide: DNITHVPGGGNKKIE

[21] = molecular target: T21, Peptide_094; assay: peptide microarray
T21 peptide: DTSPRHLSNVSSTGS

[22] = molecular target: T22, Peptide_097; assay: peptide microarray
T22 peptide: TGSIDMVDSPQLATL

[23] = molecular target: T23, Peptide_086; assay: peptide microarray
T23 peptide: KIETHKLTFRENAKA

[24] = molecular target: T24, Peptide_082; assay: peptide microarray
T24 peptide: IGSLDNITHVPGGGN

[25] = molecular target: T25, recombinant human tau incubated with poly(A) RNA (human, UniProt P10636-7 1-412, limits assumed); assay: dot blot, 20 ng tau, 8 replicates, reference heparin incubated tau
T25 construct: Oligomeric complex with RNA; also called tau/RNA complexes; TRCs
Description: To control for other polyanions inducing the TRC35+ tau conformation, recombinant protein was purified from E. coli overexpressing human tau. Twenty ng of purified tau proteins was incubated with poly(A) RNA or Heparin as shown in representative blots above. In total, 8 replicate samples were dot blotted with mAb TRC35 (FIG. 11A) and SP70 total tau mAb (FIG. 11B) as previously described for FIG. 1.

[26] = molecular target: T26, Peptide_017; assay: peptide microarray
T26 peptide: DAKSTPTAEAEEAGI

[27] = molecular target: T27, Peptide_011; assay: peptide microarray
T27 peptide: AGLKESPLQTPTEDG

[28] = molecular target: T28, Peptide_030; assay: peptide microarray
T28 peptide: DGKTKIATPRGAAPP

[29] = molecular target: T29, Peptide_021; assay: peptide microarray
T29 peptide: DTPSLEDEAAGHVTQ

[30] = molecular target: T30, Peptide_015; assay: peptide microarray
T30 peptide: EEPGSETSDAKSTPT

[31] = molecular target: T31, Peptide_006; assay: peptide microarray
T31 peptide: GDRKDQGGYTMHQDQ

[32] = molecular target: T32, Alzheimer's disease tau (ADtau) fibrillar material (human, UniProt P10636-8 2-441, limits assumed, pathological tau with phosphorylation (pS422 detected); sites otherwise not stated); assay: native dot blot densitometry, 20 ng per dot, reference recombinant tau
T32 construct: Aggregated, brain-derived material; also called detergent insoluble pathological tau purified from Alzheimer's disease brain tissue; Alzheimer's disease derived tau
Description: Shown is a native protein dot blot loaded with equivalent mass of E. coli derived recombinant tau (top row, 20 ng) or Alzheimer's disease derived tau (ADtau) (bottom row, 20 ng). […] C57BL/6 (B6) mouse immunostaining included as controls. Insets depict TRC35 immunoreactivity at higher magnification in the CA1. Scale bar=500 um at low power magnification and 50 μm in the insets.
Characterization of TRC35 monoclonal antibodies. TRC35 monoclonal antibodies were used to dot blot equivalent amounts (20 ng) E. coli-expressed native recombinant tau protein and Alzheimer's disease tau (ADtau) fibrillar material. […] Protein preparations were not denatured prior to blotting to preserve native conformations expected of a conformation dependent monoclonal antibody. Dot blots were performed using the Bio-Dot Microfiltration Apparatus as recommended by the manufacturer (Bio-Rad, catalog #170-6545). Membranes were blocked in blocking solution [20 mM Tris, 500 mM NaCl, 1% bovine serum albumin (w/v) | and probed with TRC35 at 1:50,000 as primary antibody in TTBS buffer [20 mM Tris, 500 mM NaCl, 1% bovine serum albumin (w/v), 0.5% (w/v) Tween20]. Blots were washed 3 times in TTBS to remove excess primary antibody. […] Immunoreactivity was measured using Clarity Western ECL reagents (Bio-Rad) Images were scanned and quantitated using LI-COR Image Studio software.

T32 sequence (P10636 other isoform, or with tags, fused parts or gaps limits assumed): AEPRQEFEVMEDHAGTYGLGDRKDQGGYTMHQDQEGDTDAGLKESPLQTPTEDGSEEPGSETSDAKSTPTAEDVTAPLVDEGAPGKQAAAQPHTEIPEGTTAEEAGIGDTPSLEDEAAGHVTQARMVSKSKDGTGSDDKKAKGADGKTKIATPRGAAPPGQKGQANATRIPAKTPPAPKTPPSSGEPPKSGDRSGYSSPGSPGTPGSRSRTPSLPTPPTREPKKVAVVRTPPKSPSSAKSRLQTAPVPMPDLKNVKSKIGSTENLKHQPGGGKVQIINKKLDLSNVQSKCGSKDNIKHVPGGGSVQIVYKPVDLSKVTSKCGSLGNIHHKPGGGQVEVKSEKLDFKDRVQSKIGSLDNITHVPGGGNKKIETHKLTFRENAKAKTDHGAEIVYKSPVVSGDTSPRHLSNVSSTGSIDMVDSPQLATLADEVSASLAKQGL
T25 sequence (P10636 other isoform, or with tags, fused parts or gaps limits assumed): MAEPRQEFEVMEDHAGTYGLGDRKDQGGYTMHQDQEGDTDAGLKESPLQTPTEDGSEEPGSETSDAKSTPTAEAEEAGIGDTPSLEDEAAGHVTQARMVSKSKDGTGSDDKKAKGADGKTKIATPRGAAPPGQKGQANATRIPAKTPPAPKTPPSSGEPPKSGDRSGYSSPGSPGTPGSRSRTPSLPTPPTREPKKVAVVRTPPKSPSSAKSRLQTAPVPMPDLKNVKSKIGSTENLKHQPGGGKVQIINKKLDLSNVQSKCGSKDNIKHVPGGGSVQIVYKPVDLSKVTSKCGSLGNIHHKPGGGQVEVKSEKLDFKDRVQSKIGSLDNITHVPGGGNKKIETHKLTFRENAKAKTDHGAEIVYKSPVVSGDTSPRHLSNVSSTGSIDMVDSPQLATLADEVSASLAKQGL

B1: mAb TRC35 (antibody, V domains shown)
VH: QVQLQQPGTELVKPGASVKLSCKASGYTFTSYWLQWVKQRPGQGLEWIGEIDPSDSYTNYNQKFKGKATLTVDTSSSTAYMQLSSLTSEDSAVYYCATLTGSWGQGTTLAVSS
VL: DVLLTQTPLSLPVSLGDQASISCRASQSIVDSNGNTFLEWYLQKSGQSPKVLIYKVSNRFSGVPDRFSGRGSGTDFTLKISRVEAEDLGVYYCFQGSHVPYTFGGGTKLEIK
notes: Mouse hybridoma monoclonal antibody raised in tau knockout mice against tau/poly(A) RNA complexes; IgG1 isotype, kappa light chain; also called TRC35 monoclonal antibody; hybridoma clone #35
- binding result [1]: no binding (tested: 1 ug/ml)
- binding result [2]: no binding (tested: 1 ug/ml)
- binding result [3]: no binding (tested: 1 ug/ml)
- binding result [4]: no binding (tested: 1 ug/ml)
- binding result [5]: no binding (tested: 1 ug/ml)
- binding result [6]: no binding (tested: 1 ug/ml)
- binding result [7]: no binding (tested: 1 ug/ml)
- binding result [8]: no binding (tested: 1 ug/ml)
- binding result [9]: no binding (tested: 1 ug/ml)
- binding result [10]: no binding (tested: 1 ug/ml)
- binding result [11]: no binding (tested: 1 ug/ml)
- binding result [12]: no binding (tested: 1 ug/ml)
- binding result [13]: no binding (tested: 1 ug/ml)
- binding result [14]: no binding (tested: 1 ug/ml)
- binding result [15]: no binding (tested: 1 ug/ml)
- binding result [16]: no binding (tested: 1 ug/ml)
- binding result [17]: no binding (tested: 1 ug/ml)
- binding result [18]: no binding (tested: 1 ug/ml)
- binding result [19]: no binding (tested: 1 ug/ml)
- binding result [20]: no binding (tested: 1 ug/ml)
- binding result [21]: no binding (tested: 1 ug/ml)
- binding result [22]: no binding (tested: 1 ug/ml)
- binding result [23]: no binding (tested: 1 ug/ml)
- binding result [24]: no binding (tested: 1 ug/ml)
- fold TRC35 signal normalized to SP70, relative to heparin [25]: ~2 fold
- binding result [26]: no binding (tested: 1 ug/ml)
- binding result [27]: no binding (tested: 1 ug/ml)
- binding result [28]: no binding (tested: 1 ug/ml)
- binding result [29]: no binding (tested: 1 ug/ml)
- binding result [30]: no binding (tested: 1 ug/ml)
- binding result [31]: no binding (tested: 1 ug/ml)
- fold selectivity for ADtau over native tau [32]: 8 fold
